Test results from paper PMC6601550.
pKd: −log10 of the molar value.

Experiments:
[1] = target: FcRn (neonatal Fc receptor) immobilised in the FcRn binding affinity measurement (UniProt P55899); assay: BLI
[2] = target: human neonatal Fc receptor (FcRn heavy chain FCGRT with B2M) on MDCK-hFcRn cells (human) (UniProt P55899); assay: flow cytometry on cells

Substance	pKd [1]	MFI (binding to MDCK-hFcRn cells) [2] [MFI]	MFI (cell binding to MDCK-hFcRn cells) [2] [MFI]
Adalimumab (antibody)	5.93	183	–
Basiliximab (antibody)	–	203	–
Emicizumab (bispecific antibody)	5.91	–	–
Infliximab (antibody)	–	128	–
Ocrelizumab (antibody)	–	101	–
Rituximab (antibody)	6.34	–	–
anti-herpes simplex virus glycoprotein D (gD)-YTE antibody	–	–	1150
